The target of assay [1] is T1, QP533 (SIRPαV4-mFC(mIgG2a)) (human, limits assumed).
T1 construct: also called human SIRPα V4 recombinant protein (QP533)
T1 chain: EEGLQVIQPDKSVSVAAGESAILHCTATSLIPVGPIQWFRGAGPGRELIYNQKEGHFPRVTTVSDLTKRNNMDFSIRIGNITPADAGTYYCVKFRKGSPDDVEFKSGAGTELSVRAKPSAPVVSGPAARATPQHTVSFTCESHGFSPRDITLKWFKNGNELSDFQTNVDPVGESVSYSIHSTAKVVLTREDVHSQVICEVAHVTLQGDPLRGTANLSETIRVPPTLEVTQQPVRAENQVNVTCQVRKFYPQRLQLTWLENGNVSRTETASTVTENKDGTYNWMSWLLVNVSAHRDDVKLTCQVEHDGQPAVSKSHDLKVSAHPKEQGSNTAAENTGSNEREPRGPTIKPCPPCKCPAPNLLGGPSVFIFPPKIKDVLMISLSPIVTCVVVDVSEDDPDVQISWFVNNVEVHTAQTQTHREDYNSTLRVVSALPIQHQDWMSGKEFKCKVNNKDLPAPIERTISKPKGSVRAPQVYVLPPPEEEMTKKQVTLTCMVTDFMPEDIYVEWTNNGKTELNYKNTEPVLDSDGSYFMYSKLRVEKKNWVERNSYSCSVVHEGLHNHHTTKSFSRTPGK
Nature of the assay: ELISA, human SIRPα V4 recombinant protein (QP533) coated, HRP anti-human Fc detection.

Assay [2] concerns the target T2, human SIRPα V1 on U-937 cells (human, UniProt P78324 31-504).
T2 construct: whole, on cells
Description: FACS on U-937 cells.

The target of assay [3] is SIRPα V10 fusion Fc (mouse IgG2a) (human). Description: ELISA, SIRPα V10-mouse IgG2a Fc coated, anti-hFab detection; unit from the x axis; the curve is flat at the baseline, the fit is marked ambiguous (~). For orientation: In an ELISA, binding on a coated surface is turned into a signal by an enzyme label.
Assay [4] has as its target SIRPα V3 fusion Fc (mouse IgG2a) (human). Description: ELISA, SIRPα V3-mouse IgG2a Fc coated, anti-hFab detection; unit from the x axis Log(Conc.(nM)).
For assay [5], the target named is SIRPα V7 fusion Fc (mouse IgG2a) (human). Nature of the assay: ELISA, SIRPα V7-mouse IgG2a Fc coated, anti-hFab detection; unit from the x axis Log(Conc.(nM)).
Assay [6] concerns the target T3, QP094 (human SIRPα V1 ECD(E31-R370)-flag-his) (human, UniProt P78324 31-370).
T3 construct: the construct carries flag and his tags; also called SIRPαV1-flag-his; SIRPαV1-his (QP094)
Description: SPR, Biacore.

Assay [7] addresses T4, QP096 (human SIRPα V2 ECD(E31-R370)-flag-his) (human).
T4 construct: the construct carries flag and his tags; also called SIRPαV2-Flag-his; Human SIRPα V2 (QP096)
Description: SPR, Biacore.

For another assay, the target named is T5, QP002 (biotinylated in the blocking assays, sites not given).
T5 construct: also called SIRPα-FC; Biotin-QP002
Description: blocking ELISA: QP001.2 (CD47) coated, biotin-QP002 (SIRPα-FC) mixed with the antibody, HRP-streptavidin; blocked ligand: CD47; unit from the x axis Log[Conc.(ug/ml)].

Assay [8] addresses SIRPα V2 fusion Fc (mouse IgG2a) (human). Description: ELISA, SIRPα V2-mouse IgG2a Fc coated, anti-hFab detection; unit from the x axis Log(Conc.(nM)).
The target in the assay “QP093 (human SIRPα V1 …)” is T6, QP093 (human SIRPα V1 ECD(E31-R370)-mFC(IgG2a)) (human).
T6 construct: also called Human SIRPα V1 recombinant protein (QP093)
T6 chain: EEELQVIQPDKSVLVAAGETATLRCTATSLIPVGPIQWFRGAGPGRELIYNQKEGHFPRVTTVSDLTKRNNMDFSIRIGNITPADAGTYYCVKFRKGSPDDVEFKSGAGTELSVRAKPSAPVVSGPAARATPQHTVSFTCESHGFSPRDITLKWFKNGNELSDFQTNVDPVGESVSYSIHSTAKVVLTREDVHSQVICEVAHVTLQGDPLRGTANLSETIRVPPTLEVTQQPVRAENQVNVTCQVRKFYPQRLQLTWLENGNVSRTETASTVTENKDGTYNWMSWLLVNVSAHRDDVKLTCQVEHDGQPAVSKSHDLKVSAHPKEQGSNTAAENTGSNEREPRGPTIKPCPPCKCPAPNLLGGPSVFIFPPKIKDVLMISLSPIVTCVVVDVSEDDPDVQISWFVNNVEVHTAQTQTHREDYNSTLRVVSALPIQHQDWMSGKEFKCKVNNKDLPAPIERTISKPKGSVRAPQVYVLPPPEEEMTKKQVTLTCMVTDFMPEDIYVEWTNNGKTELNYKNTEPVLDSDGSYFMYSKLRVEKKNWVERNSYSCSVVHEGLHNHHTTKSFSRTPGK
Description: ELISA, QP093 (SIRPα V1) coated, anti-hFab detection; unit from the x axis Log(Conc.(nM)).

Assay [9] has as its target SIRPα V8 fusion Fc (mouse IgG2a) (human). Description: ELISA, SIRPα V8-mouse IgG2a Fc coated, anti-hFab detection; unit from the x axis Log(Conc.(nM)).
The target of assay [10] is SIRPα V10 fusion Fc (mouse IgG2a) (human). Nature of the assay: ELISA, SIRPα V10-mouse IgG2a Fc coated, anti-hFab detection; unit from the x axis Log(Conc.(nM)).
The assay “QP095 (human SIRPα V2 …)” has as its target T7, QP095 (human SIRPα V2 ECD(E31-R370)-mFC(IgG2a)) (human).
T7 construct: also called human SIRPα V2 recombinant protein (QP095)
Nature of the assay: ELISA, QP095 (SIRPα V2) coated, anti-hFab detection; unit from the x axis Log(Conc.(nM)).

Assay [11] concerns the target T3, QP094 (human SIRPα V1 …). Nature of the assay: binding ELISA, antigen coated.
For assay [12], the target named is T4, QP096 (human SIRPα V2 …). Nature of the assay: binding ELISA, antigen coated.
In another assay the target is QP003 (PDL1-his). Nature of the assay: ELISA, QP003 (PDL1-his) captured on coated anti-his, anti-hFc detection; unit from the x axis; the curve is flat at the baseline, the fit is marked ambiguous (~).
Chain of QP003 (PDL1-his) (chain, as listed by the source limits assumed): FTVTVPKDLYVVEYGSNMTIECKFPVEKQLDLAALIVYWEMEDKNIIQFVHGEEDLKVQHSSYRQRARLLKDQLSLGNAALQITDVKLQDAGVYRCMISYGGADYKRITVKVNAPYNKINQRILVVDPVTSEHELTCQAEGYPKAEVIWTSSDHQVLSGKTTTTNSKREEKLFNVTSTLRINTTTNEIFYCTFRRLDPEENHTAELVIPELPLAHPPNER

T4 sequence (chain, as listed by the source limits assumed): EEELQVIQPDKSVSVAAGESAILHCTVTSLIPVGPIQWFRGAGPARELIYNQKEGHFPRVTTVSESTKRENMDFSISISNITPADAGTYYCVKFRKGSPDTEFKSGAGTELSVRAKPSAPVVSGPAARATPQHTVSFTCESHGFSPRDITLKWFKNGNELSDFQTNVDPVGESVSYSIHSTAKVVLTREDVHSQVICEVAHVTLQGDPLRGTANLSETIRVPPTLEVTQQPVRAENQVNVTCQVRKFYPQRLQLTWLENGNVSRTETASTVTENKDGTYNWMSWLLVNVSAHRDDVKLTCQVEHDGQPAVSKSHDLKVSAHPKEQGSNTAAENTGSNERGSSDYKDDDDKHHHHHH

B1: QP250251 (18D5 analog) (antibody, human IgG4 S228P, kappa, V domains shown)
VH: QVQLQQPGAELVRPGSSVKLSCKASGYTFTSYWVHWVKQRPIQGLEWIGNIDPSDSDTHYNQKFKDKASLTVDKSSSTAYMQLSSLTFEDSAVYYCVRGGTGTMAWFAYWGQGTLVTVSA
VL: DVVMTQTPLSLPVSLGDQASISCRSSQSLVHSYGNTYLYWYLQKPGQSPKLLIYRVSNRFSGVPDRFSGSGSGTDFTLKISRVEAEDLGVYFCFQGTHVPYTFGSGTKLEIKR
notes: also called SIRPα antibody 18D5 from OSE
The term EC50 denotes the midpoint of the concentration-response curve. As to B1, the EC50 in assay [1] is 0.539 nM; in assay [2], 0.581 nM; in assay [3] it was approximately 0.0554 nM.

B2: QP026249 (KWAR23 analog) (antibody, human IgG4 S228P, kappa)
heavy: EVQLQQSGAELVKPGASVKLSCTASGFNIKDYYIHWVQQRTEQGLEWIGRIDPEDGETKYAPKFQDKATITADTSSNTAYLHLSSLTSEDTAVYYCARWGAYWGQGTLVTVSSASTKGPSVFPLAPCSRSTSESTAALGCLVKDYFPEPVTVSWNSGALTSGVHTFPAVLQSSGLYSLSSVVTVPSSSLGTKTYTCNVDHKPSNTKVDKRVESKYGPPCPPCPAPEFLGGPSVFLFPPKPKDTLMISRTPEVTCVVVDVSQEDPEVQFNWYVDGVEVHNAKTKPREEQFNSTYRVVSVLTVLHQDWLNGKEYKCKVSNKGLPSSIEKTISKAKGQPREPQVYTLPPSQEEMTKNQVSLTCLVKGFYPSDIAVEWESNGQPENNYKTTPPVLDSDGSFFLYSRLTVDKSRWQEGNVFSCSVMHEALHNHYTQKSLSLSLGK
light: QIVLTQSPAIMSASPGEKVTLTCSASSSVSSSYLYWYQQKPGSSPKLWIYSTSNLASGVPARFSGSGSGTSYSLTISSMEAEDAASYFCHQWSSYPRTFGAGTKLELKRTVAAPSVFIFPPSDEQLKSGTASVVCLLNNFYPREAKVQWKVDNALQSGNSQESVTEQDSKDSTYSLSSTLTLSKADYEKHKVYACEVTHQGLSSPVTKSFNRGEC
notes: also called KAWA23 analog; control antibody KWAR23 (QP026249), human IgG4
What is called Kd is the concentration at which binding is half-saturated. Lower therefore signals tighter binding. One may read the IC50 as the concentration that gives 50% inhibition. As for B2, the EC50 in assay [4] worked out at 0.135 nM; in assay [5] it was 0.147 nM; in [8], 0.137 nM; with QP093 (human SIRPα V1 …), 0.237 nM; in assay [9] it was 0.18 nM; in [10], 0.137 nM. Also, the EC50 stood at 0.249 nM with QP095 (human SIRPα V2 …); 0.439 nM in assay [1]; 0.21 nM in assay [2]; 5.29 ng/mL in the assay with QP094 (human SIRPα V1 …) [11]; 3.31 ng/mL in the assay with QP096 (human SIRPα V2 …) [12]. Also, the values for the Kd with QP094 (human SIRPα V1 …) [6] and in the assay with QP096 (human SIRPα V2 …) [7] were 3.43 nM and 13.6 nM, respectively. Besides, the IC50 with QP002 turned out to be 45.4 ng/mL.

B3: QP256279 (antibody, human IgG4, V domains shown)
VH: QVQLVQSGAEVKKPGASVKVSCKASGYTFTNYWINWVRQAPGQGLEWIAMIDPSDSETHYNQIFKDRATLTTDTSTSTAYMELRSLRSDDTAVYYCAMDYGSLYAMDYWGRGTLVTVSS
VL: DIVLTQSPDSLAVSLGERATINCRASQSVRSSGYNWIFWYQQKPGQPPKLLIYLASNRDSGVPDRFSGSGSGTDFTLTISSLQAEDVAVYYCQHSRELPTFGQGTKLEIK
notes: Human IgG4 heavy constant region and kappa CL
Turning to B3, the 50% effective concentration (EC50) was found to be 0.0635 nM in [4]; 0.0707 nM in assay [5]; 0.0682 nM in assay [8]; 0.0851 nM in assay [9]; 0.0682 nM in assay [10]; 0.651 ng/mL with QP094 (human SIRPα V1 …) [11]. Moreover, in the assay with QP096 (human SIRPα V2 …) [12], the midpoint of the response, the EC50, lay at 0.624 ng/mL. Also, the Kd with QP094 (human SIRPα V1 …) [6] came to 0.0354 nM; with QP096 (human SIRPα V2 …) [7], 0.0446 nM. For the same molecule, half-maximal inhibition with QP002 (IC50) required 12.9 ng/mL.

B4: QP32700279 (antibody, human IgG1, kappa, L234A L235A, V domains shown)
VH: QVQLVQSGAEVKKPGASVKVSCKASGYTFTNYWINWVRQAPGQGLEWIAMIDPSDSETHYNQIFKDRATLTTDTSTSTAYMELRSLRSDDTAVYYCAMDYGSLYAMDYWGRGTLVTVSS
VL: DIVLTQSPDSLAVSLGERATINCRASQSVRSSGYNWIFWYQQKPGQPPKLLIYLASNRDSGVPDRFSGSGSGTDFTLTISSLQAEDVAVYYCQHSRELPTFGQGTKLEIKR
notes: also called SIRPα monoclonal antibody CHO71
Regarding B4, the EC50 in the assay with QP093 (human SIRPα V1 …) was 0.142 nM; with QP003 (PDL1-his), approximately 0.000628 nM; in the assay with QP095 (human SIRPα V2 …) it was 0.16 nM; in assay [1], 0.151 nM; in assay [2] it was 0.076 nM.

B5: QP37503751 (1H9 analog) (antibody, human IgG1, kappa, N297A, V domains shown)
VH: QVQLVQSGAEVKKPGASVKVSCKASGYTFTSYWITWVKQAPGQGLEWIGDIYPGSGSTNHIEKFKSKATLTVDTSISTAYMELSRLRSDDTAVYYCATGYGSSYGYFDYWGQGTLVTVSS
VL: DIQMTQSPSSLSASVGDRVTITCRASENIYSYLAWYQQKPGKAPKLLIYTAKTLAEGVPSRFSGSGSGTDFTLTISSLQPEDFATYYCQHQYGPPFTFGQGTKLEIKR
notes: also called hz1H9 hIgG1(N297A)
With B5, the figures for the EC50 in assay [1] and in [2] were 0.169 nM and 0.158 nM, respectively.

(Values after patent US20250326840A1 (QURE BIOTECHNOLOGY SHANGHAI, published 2025).)
